This is an account of results in US20220048991A1 (BIOND BIOLOGICS, published 2022).

Experiment [1] deals with T1, recombinant ILT2 (human) (human, UniProt Q8NHL6 24-461).
T1 construct: also called recombinant ILT2 peptide; ILT2 protein
Nature of the experiment: SPR (Biacore T200), HEK EBNA supernatants on recombinant ILT2 peptide. The method, then: (§1) During grafting of the 15G8 CDRs, five heavy chains and four kappa light chains were generated. These chains were designated VH1-5 and Vk1-4. By combining each heavy chain with each light chain twenty different resultant antibodies are possible. All twenty possible antibodies were transiently expressed in HEK EBNA cells, and the supernatants were tested for binding to recombinant ILT2 peptide using a Biacore T200. The chimeric 15G8 antibody was used as control.
Background: Surface plasmon resonance follows binding to a sensor surface in real time, without labels.

In experiment [2] the target is T1, recombinant ILT2 (human). Kind of experiment: SPR (Biacore T200); KD relative to Control (chimeric 15G8). As to the method: as §1

T1 sequence (Q8NHL6 24-461 limits assumed): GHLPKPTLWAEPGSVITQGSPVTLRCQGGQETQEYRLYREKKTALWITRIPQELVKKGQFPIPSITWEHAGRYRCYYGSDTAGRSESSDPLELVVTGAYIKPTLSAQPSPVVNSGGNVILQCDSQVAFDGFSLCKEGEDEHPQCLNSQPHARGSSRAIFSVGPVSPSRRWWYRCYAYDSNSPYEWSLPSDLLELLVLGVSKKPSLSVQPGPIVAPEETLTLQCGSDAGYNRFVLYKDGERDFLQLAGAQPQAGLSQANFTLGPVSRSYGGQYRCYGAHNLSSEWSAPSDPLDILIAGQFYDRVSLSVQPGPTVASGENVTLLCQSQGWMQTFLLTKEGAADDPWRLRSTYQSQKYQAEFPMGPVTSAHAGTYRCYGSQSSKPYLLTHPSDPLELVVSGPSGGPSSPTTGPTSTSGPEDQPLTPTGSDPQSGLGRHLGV

B1: 15G8-23 (humanized 15G8, VH2/Vk3) (antibody, human IgG4 S228P, kappa, V domains shown)
VH: DVQLQGSGPGLVKPSETLSLTCSVTGYSITSGYYWNWIRQFPGKKLEWMGYISYDGSNNYNPSLKNRITISRDTSKNQFSLKLSSVTAADTATYYCAHGYSYYYAMDAWGQGTTVTVSS
VL: DIQMTQSPSSLSASVGDRVTITCRTSQDISNYLNWYQQKPGKAVKLLISYTSRLHSGVPSRFSGSGSGTDYTLTISSLQPEDFATYYCQQGNTLPTFGQGTKLEIKR
notes: Humanized IgG4 (S228P, L235E), kappa
Usually Kd stands for a measure of binding affinity in units of concentration. What is called koff is a measure of how fast the partners let go of each other. What is called kon is a measure of how fast the partners come together. As for B1, in the experiment with recombinant ILT2 (human) [1], the Kd came to 8.31 nM, the koff came to 0.0076 s⁻¹ and the kon turned out to be 915000 M⁻¹ s⁻¹. The “Relative KD” value in the experiment with recombinant ILT2 (human) [2] stood at 0.66.

B2: humanized 15G8 VH4/Vk2 (antibody, IgG4, V domains shown)
VH: QVQLQGSGPGLVKPSETLSLTCSVTGYSITSGYYWNWIRQPPGKGLEWMGYISYDGSNNYNPSLKNRVTISRDTSKNQFSLKLSSVTAADTATYYCAHGYSYYYAMDAWGQGTTVTVSS
VL: DIQMTQSPSSLSASVGDRVTITCRTSQDISNYLNWYQQKPGKAVKLLISYTSRLHSGVPSRFSGSGSGTDYTLTISSLQPEDFATYFCQQGNTLPTFGQGTKLEIK
notes: Humanized IgG4 (S228P, L235E), kappa; tested as supernatant of transiently transfected HEK EBNA cells
In the case of B2, in the experiment with recombinant ILT2 (human) [1], the Kd was found to be 9.93 nM, the koff was 0.00685 s⁻¹ and the kon was 690000 M⁻¹ s⁻¹. Moreover, the “Relative KD” value with recombinant ILT2 (human) [2] was determined as 0.79.

B3: humanized 15G8 VH2/Vk1 (antibody, IgG4, V domains shown)
VH: DVQLQGSGPGLVKPSETLSLTCSVTGYSITSGYYWNWIRQFPGKKLEWMGYISYDGSNNYNPSLKNRITISRDTSKNQFSLKLSSVTAADTATYYCAHGYSYYYAMDAWGQGTTVTVSS
VL: DIQMTQSTSSLSASVGDRVTITCRTSQDISNYLNWYQQKPGKAVKLLISYTSRLHSGVPSRFSGSGSGTDYTLTISSLQQEDFATYFCQQGNTLPTFGQGTKLEIK
notes: as for B2
As for B3, in the experiment with recombinant ILT2 (human) [1], the Kd worked out at 9.58 nM, the koff was determined as 0.00728 s⁻¹ and the kon was 760000 M⁻¹ s⁻¹. Also, the “Relative KD” value with recombinant ILT2 (human) [2] turned out to be 0.76.

B4: 15G8-32 (humanized 15G8, VH3/Vk2) (antibody, human IgG4 S228P, kappa, V domains shown)
VH: DVQLQGSGPGLVKPSETLSLTCSVTGYSITSGYYWNWIRQPPGKGLEWMGYISYDGSNNYNPSLKNRITISRDTSKNQFSLKLSSVTAADTATYYCAHGYSYYYAMDAWGQGTTVTVSS
VL: DIQMTQSPSSLSASVGDRVTITCRTSQDISNYLNWYQQKPGKAVKLLISYTSRLHSGVPSRFSGSGSGTDYTLTISSLQPEDFATYFCQQGNTLPTFGQGTKLEIKR
notes: as for B1
B4: in the experiment with recombinant ILT2 (human) [1], the Kd turned out to be 8.19 nM, the dissociation rate constant (koff) came out at 0.00664 s⁻¹ and the kon was determined as 811000 M⁻¹ s⁻¹. Further, the “Relative KD” value in the experiment with recombinant ILT2 (human) [2] was found to be 0.65.

B5: 15G8-54 (humanized 15G8, VH5/Vk4) (antibody, IgG4, V domains shown)
VH: QVQLQGSGPGLVKPSETLSLTCTVTGYSITSGYYWNWIRQPPGKGLEWIGYISYDGSNNYNPSLKNRVTISRDTSKNQFSLKLSSVTAADTATYYCAHGYSYYYAMDAWGQGTTVTVSS
VL: DIQMTQSPSSLSASVGDRVTITCRTSQDISNYLNWYQQKPGKAPKLLISYTSRLHSGVPSRFSGSGSGTDYTLTISSLQPEDFATYFCQQGNTLPTFGQGTKLEIK
notes: as for B1
Consider B5, for which, in the experiment with recombinant ILT2 (human) [1], the Kd came to 10.3 nM, the koff was determined as 0.0117 s⁻¹ and the kon worked out at 1.14e+06 M⁻¹ s⁻¹. The “Relative KD” value with recombinant ILT2 (human) [2] worked out at 0.82.

B6: 15G8-34 (humanized 15G8, VH3/Vk4) (antibody, IgG4, V domains shown)
VH: DVQLQGSGPGLVKPSETLSLTCSVTGYSITSGYYWNWIRQPPGKGLEWMGYISYDGSNNYNPSLKNRITISRDTSKNQFSLKLSSVTAADTATYYCAHGYSYYYAMDAWGQGTTVTVSS
VL: DIQMTQSPSSLSASVGDRVTITCRTSQDISNYLNWYQQKPGKAPKLLISYTSRLHSGVPSRFSGSGSGTDYTLTISSLQPEDFATYFCQQGNTLPTFGQGTKLEIK
notes: as for B1
Turning to B6, in the experiment with recombinant ILT2 (human) [1], the Kd turned out to be 12.6 nM, the koff worked out at 0.00832 s⁻¹ and the kon was 661000 M⁻¹ s⁻¹. Besides, the “Relative KD” value with recombinant ILT2 (human) [2] is 1.

B7: humanized 15G8 VH1/Vk4 (antibody, IgG4, V domains shown)
VH: DVQLQGSGPGLVKPSETLSLTCSVTGYSITSGYYWNWIRQFPGKKLEWMGYISYDGSNNYNPSLKNRITISRDTSKNQFSLKLNSVTAADTATYYCAHGYSYYYAMDAWGQGTSVTVSS
VL: DIQMTQSPSSLSASVGDRVTITCRTSQDISNYLNWYQQKPGKAPKLLISYTSRLHSGVPSRFSGSGSGTDYTLTISSLQPEDFATYFCQQGNTLPTFGQGTKLEIK
notes: as for B2
Turning to B7, in the experiment with recombinant ILT2 (human) [1], the Kd was found to be 18.7 nM, the koff is 0.00854 s⁻¹ and the kon is 457000 M⁻¹ s⁻¹. Also, in the experiment with recombinant ILT2 (human) [2], the “Relative KD” value is 1.48.

B8: 15G8-53 (humanized 15G8, VH5/Vk3) (antibody, human IgG4 S228P, kappa, V domains shown)
VH: QVQLQGSGPGLVKPSETLSLTCTVTGYSITSGYYWNWIRQPPGKGLEWIGYISYDGSNNYNPSLKNRVTISRDTSKNQFSLKLSSVTAADTATYYCAHGYSYYYAMDAWGQGTTVTVSS
VL: DIQMTQSPSSLSASVGDRVTITCRTSQDISNYLNWYQQKPGKAVKLLISYTSRLHSGVPSRFSGSGSGTDYTLTISSLQPEDFATYYCQQGNTLPTFGQGTKLEIKR
notes: as for B1
As for B8, in the experiment with recombinant ILT2 (human) [1], the Kd worked out at 10.6 nM, the koff turned out to be 0.0072 s⁻¹ and the kon is 682000 M⁻¹ s⁻¹. In the experiment with recombinant ILT2 (human) [2], the “Relative KD” value was determined as 0.84.

B9: humanized 15G8 VH2/Vk2 (antibody, IgG4, V domains shown)
VH: DVQLQGSGPGLVKPSETLSLTCSVTGYSITSGYYWNWIRQFPGKKLEWMGYISYDGSNNYNPSLKNRITISRDTSKNQFSLKLSSVTAADTATYYCAHGYSYYYAMDAWGQGTTVTVSS
VL: DIQMTQSPSSLSASVGDRVTITCRTSQDISNYLNWYQQKPGKAVKLLISYTSRLHSGVPSRFSGSGSGTDYTLTISSLQPEDFATYFCQQGNTLPTFGQGTKLEIK
notes: as for B2
On to B9, for which, in the experiment with recombinant ILT2 (human) [1], the Kd worked out at 8.79 nM, the koff came to 0.0066 s⁻¹ and the kon stood at 752000 M⁻¹ s⁻¹. Further, the “Relative KD” value with recombinant ILT2 (human) [2] was 0.7.

B10: humanized 15G8 VH1/Vk2 (antibody, IgG4, V domains shown)
VH: DVQLQGSGPGLVKPSETLSLTCSVTGYSITSGYYWNWIRQFPGKKLEWMGYISYDGSNNYNPSLKNRITISRDTSKNQFSLKLNSVTAADTATYYCAHGYSYYYAMDAWGQGTSVTVSS
VL: DIQMTQSPSSLSASVGDRVTITCRTSQDISNYLNWYQQKPGKAVKLLISYTSRLHSGVPSRFSGSGSGTDYTLTISSLQPEDFATYFCQQGNTLPTFGQGTKLEIK
notes: as for B2
As for B10, in the experiment with recombinant ILT2 (human) [1], the Kd was 8.82 nM, the koff turned out to be 0.00678 s⁻¹ and the kon worked out at 769000 M⁻¹ s⁻¹. In addition, the “Relative KD” value in the experiment with recombinant ILT2 (human) [2] amounted to 0.7.

B11: humanized 15G8 VH1/Vk1 (antibody, IgG4, V domains shown)
VH: DVQLQGSGPGLVKPSETLSLTCSVTGYSITSGYYWNWIRQFPGKKLEWMGYISYDGSNNYNPSLKNRITISRDTSKNQFSLKLNSVTAADTATYYCAHGYSYYYAMDAWGQGTSVTVSS
VL: DIQMTQSTSSLSASVGDRVTITCRTSQDISNYLNWYQQKPGKAVKLLISYTSRLHSGVPSRFSGSGSGTDYTLTISSLQQEDFATYFCQQGNTLPTFGQGTKLEIK
notes: as for B2
Turning to B11, in the experiment with recombinant ILT2 (human) [1], the Kd was determined as 8.77 nM, the koff was found to be 0.00931 s⁻¹ and the kon amounted to 1.06e+06 M⁻¹ s⁻¹. Moreover, in the experiment with recombinant ILT2 (human) [2], the “Relative KD” value came to 0.7.

B12: 15G8-44 (humanized 15G8, VH4/Vk4) (antibody, IgG4, V domains shown)
VH: QVQLQGSGPGLVKPSETLSLTCSVTGYSITSGYYWNWIRQPPGKGLEWMGYISYDGSNNYNPSLKNRVTISRDTSKNQFSLKLSSVTAADTATYYCAHGYSYYYAMDAWGQGTTVTVSS
VL: DIQMTQSPSSLSASVGDRVTITCRTSQDISNYLNWYQQKPGKAPKLLISYTSRLHSGVPSRFSGSGSGTDYTLTISSLQPEDFATYFCQQGNTLPTFGQGTKLEIK
notes: as for B1
As to B12, in the experiment with recombinant ILT2 (human) [1], the Kd was found to be 13.5 nM, the koff was found to be 0.00977 s⁻¹ and the on-rate constant (kon) came out at 724000 M⁻¹ s⁻¹. Moreover, the “Relative KD” value with recombinant ILT2 (human) [2] was 1.07.
